The assay has as its target T1, human MUC-1 on cells (human, UniProt P15941 24-1255).
T1 construct: Endogenous on human tumour cell lines and normal kidney and lung cells; also called hMUC-1; mucin 1
The experiment in a line: flow cytometry with PE-labeled antibody on tumor cell lines, MESF by PE Quantum Beads. For orientation: Flow cytometry measures light scatter and fluorescence of single cells or particles in a stream.

T1 sequence (P15941 24-1255 limits assumed): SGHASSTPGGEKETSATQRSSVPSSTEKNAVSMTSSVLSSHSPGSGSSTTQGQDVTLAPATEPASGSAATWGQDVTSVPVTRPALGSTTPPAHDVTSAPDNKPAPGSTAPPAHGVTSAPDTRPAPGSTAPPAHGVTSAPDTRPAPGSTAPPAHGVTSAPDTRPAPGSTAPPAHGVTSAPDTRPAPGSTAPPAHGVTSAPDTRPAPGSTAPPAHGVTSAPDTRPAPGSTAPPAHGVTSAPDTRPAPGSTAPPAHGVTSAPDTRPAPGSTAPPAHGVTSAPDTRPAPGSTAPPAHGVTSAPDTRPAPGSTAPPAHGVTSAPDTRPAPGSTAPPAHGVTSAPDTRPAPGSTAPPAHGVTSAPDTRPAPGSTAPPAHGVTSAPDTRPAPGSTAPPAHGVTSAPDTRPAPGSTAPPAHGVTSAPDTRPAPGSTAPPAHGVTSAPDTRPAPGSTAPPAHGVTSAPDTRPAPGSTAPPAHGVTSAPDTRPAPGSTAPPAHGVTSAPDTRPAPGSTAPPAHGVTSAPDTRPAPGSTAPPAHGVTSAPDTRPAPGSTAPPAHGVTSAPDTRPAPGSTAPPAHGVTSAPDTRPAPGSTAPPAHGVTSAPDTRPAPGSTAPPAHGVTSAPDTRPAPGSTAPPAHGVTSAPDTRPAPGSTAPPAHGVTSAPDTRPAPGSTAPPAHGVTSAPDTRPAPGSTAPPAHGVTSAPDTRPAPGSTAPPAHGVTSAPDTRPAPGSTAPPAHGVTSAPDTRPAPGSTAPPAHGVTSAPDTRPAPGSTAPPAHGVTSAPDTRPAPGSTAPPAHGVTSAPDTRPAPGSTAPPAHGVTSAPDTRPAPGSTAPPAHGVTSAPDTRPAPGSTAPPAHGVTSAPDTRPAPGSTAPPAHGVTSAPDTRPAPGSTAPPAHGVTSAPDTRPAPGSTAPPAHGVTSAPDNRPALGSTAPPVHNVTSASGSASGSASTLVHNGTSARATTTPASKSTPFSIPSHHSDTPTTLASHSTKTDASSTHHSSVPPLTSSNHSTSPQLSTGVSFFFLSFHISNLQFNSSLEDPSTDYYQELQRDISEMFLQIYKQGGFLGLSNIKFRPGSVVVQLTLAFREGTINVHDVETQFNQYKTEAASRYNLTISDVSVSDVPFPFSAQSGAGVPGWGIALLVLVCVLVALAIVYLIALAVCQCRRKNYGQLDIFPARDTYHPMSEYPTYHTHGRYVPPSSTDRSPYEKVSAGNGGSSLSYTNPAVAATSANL

B1: anti-MUC-1 (D11-28) antibody, PE-labeled (antibody, human IgG1, lambda, L234A L235A, V domains shown)
VH: EVQLVQSGAEVKKPGASVKVSCKASGYSFTGHYMHWVRQAPGQGLEWMGWIDPVTGGTKYAQKFQGWVTMTRDTSISTAYMELSRLRSDDTAVYYCAREVTGDRGQFDKWGQGTLVTVSS
VL: SYVLTQPPSVSVAPGKTARITCGGNNIGSKSVHWYQQKPGQAPVLVIYYGSNRPSGIPERFSGSNSGNTATLTISRVEAGDEADYYCQVWDSSSDWVFGGGTKLTVLG
modifications: PE (phycoerythrin) label, site not stated
notes: also called anti-MUC-1 antibody clone (D11-28); anti-MUC-1 PE antibody
On to B1, for which the binding result is recorded as “binds”.
